Test results reported in publication PMC9482650, “Quantitative fragmentomics allow affinity mapping of interactomes” (Nature Communications, 2022).
Each block holds one binder with its values, some of them ahead of it.

What was measured:
Assay in all cases: holdup assay
Parameters in all cases: key: below the threshold = too weak to quantify, mostly under pKd 3.1 to 4
TX1BP3, O14907 = target: T1, TX1BP3, O14907
T1 sequence (O14907 10-122, limits assumed, looked up): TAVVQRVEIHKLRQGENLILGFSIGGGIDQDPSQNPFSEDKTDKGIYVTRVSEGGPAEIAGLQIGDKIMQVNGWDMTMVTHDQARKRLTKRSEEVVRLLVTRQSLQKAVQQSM

Inadl_10, Q8NI35 = target: Inadl_10, Q8NI35
Inadl_8, Q8NI35 = target: Inadl_8, Q8NI35
LIN7B, Q9HAP6 = target: T2, LIN7B, Q9HAP6
T2 sequence (Q9HAP6 88-185, limits assumed, looked up): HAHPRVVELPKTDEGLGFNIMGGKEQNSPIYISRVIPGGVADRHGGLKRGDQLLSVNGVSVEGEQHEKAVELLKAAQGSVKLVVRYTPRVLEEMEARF

ARHGEF11, O15085 = target: T3, ARHGEF11, O15085
T3 sequence (O15085 42-136, limits assumed, looked up): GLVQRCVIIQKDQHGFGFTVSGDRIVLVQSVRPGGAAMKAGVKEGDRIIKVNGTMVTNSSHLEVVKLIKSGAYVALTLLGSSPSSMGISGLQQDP

HTRA1, Q92743 = target: HTRA1, Q92743
PDZD2_2, O15018 = target: T4, PDZD2_2, O15018
T4 sequence (O15018 329-429, limits assumed, looked up): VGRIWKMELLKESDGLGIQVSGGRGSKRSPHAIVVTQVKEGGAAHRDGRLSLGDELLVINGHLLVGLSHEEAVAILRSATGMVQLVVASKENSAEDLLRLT

GRIP1_2, Q9Y3R0 = target: T5, GRIP1_2, Q9Y3R0
T5 sequence (Q9Y3R0 145-248, limits assumed, looked up): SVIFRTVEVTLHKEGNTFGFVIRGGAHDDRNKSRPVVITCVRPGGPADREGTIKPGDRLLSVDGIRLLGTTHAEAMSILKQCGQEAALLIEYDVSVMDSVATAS

LNX2_3, Q8N448 = target: T6, LNX2_3, Q8N448
T6 sequence (Q8N448 463-564, limits assumed, looked up): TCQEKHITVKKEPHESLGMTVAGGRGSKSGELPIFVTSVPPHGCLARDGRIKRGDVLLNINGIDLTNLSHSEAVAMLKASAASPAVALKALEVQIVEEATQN

AHNAK1, Q09666 = target: AHNAK1, Q09666
PDZRN3_1, Q9UPQ7 = target: T7, PDZRN3_1, Q9UPQ7
T7 sequence (Q9UPQ7 244-349, limits assumed, looked up): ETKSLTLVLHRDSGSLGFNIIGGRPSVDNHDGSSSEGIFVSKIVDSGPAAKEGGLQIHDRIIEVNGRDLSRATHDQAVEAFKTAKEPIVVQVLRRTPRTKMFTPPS

TJP2_1, Q9UDY2 = target: TJP2_1, Q9UDY2
PARD3_3, Q8TEW0 = target: PARD3_3, Q8TEW0
SCRIB_2, Q14160 = target: SCRIB_2, Q14160
LAP2, Q96RT1 = target: LAP2, Q96RT1
SNTB1, Q13884 = target: T8, SNTB1, Q13884
T8 sequence (Q13884 107-205, limits assumed, looked up): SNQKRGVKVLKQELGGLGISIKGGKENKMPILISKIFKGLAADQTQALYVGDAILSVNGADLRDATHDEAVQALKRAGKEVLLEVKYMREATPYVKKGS

GRIP2_3, Q9C0E4 = target: GRIP2_3, Q9C0E4
DFNB31_2, Q9P202 = target: T9, DFNB31_2, Q9P202
T9 sequence (Q9P202 274-371, limits assumed, looked up): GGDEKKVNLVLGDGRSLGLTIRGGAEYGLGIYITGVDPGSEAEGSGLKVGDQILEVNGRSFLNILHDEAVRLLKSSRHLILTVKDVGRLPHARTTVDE

Inadl_5, Q8NI35 = target: Inadl_5, Q8NI35
Inadl_4, Q8NI35 = target: Inadl_4, Q8NI35
PTPN13_1, Q12923 = target: T10, PTPN13_1, Q12923
T10 sequence (Q12923 1088-1188, limits assumed, looked up): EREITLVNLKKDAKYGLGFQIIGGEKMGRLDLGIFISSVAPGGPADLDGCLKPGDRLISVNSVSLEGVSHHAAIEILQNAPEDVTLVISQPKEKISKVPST

Inadl_3, Q8NI35 = target: Inadl_3, Q8NI35
SHANK1, Q9Y566 = target: T11, SHANK1, Q9Y566
T11 sequence (Q9Y566 658-767, limits assumed, looked up): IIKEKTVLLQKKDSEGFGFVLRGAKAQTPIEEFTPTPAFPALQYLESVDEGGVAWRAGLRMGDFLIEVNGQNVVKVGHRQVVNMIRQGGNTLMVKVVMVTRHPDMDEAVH

MAGI3_2, Q5TCQ9 = target: MAGI3_2, Q5TCQ9
GRASP, Q7Z6J2 = target: GRASP, Q7Z6J2
PICK1, Q9NRD5 = target: PICK1, Q9NRD5
[1] = plain residues with an end cap or a label only (N-terminal biotin on a linker: ado-ado)
[2] = plain residues with an end cap or a label only (N-terminal biotin on a linker: ahx)

Chain of SCRIB_2, Q14160 (Q14160 857-960): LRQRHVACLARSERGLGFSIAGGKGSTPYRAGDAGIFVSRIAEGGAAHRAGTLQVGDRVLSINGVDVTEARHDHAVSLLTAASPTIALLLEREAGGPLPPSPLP
Chain of Inadl_4, Q8NI35 (Q8NI35 547-651): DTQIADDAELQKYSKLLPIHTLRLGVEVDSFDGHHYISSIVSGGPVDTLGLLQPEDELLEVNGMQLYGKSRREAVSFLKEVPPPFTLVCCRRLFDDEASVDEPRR
Chain of GRASP, Q7Z6J2 (Q7Z6J2 96-193): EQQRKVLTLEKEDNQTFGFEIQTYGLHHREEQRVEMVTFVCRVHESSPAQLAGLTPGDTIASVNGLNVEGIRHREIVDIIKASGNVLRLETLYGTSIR
Chain of AHNAK1, Q09666 (Q09666 4-100): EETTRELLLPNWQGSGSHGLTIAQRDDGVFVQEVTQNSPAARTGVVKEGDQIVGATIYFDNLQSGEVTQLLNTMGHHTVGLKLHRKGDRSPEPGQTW
Chain of HTRA1, Q92743 (Q92743 360-477): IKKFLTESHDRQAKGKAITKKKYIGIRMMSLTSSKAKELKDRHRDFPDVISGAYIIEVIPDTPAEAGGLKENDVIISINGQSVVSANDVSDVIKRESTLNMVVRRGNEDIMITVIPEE
Chain of MAGI3_2, Q5TCQ9 (Q5TCQ9 398-503): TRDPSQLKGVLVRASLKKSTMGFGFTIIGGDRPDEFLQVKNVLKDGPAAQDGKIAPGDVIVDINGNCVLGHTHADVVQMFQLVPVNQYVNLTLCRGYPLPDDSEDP
Chain of Inadl_8, Q8NI35 (Q8NI35 1425-1530): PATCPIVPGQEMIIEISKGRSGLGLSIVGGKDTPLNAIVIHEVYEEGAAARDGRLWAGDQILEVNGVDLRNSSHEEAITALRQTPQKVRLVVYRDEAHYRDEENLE
Chain of Inadl_5, Q8NI35 (Q8NI35 673-780): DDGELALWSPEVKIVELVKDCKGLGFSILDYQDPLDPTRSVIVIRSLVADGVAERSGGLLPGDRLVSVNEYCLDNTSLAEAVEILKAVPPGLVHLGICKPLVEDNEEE
Chain of PICK1, Q9NRD5 (Q9NRD5 17-115): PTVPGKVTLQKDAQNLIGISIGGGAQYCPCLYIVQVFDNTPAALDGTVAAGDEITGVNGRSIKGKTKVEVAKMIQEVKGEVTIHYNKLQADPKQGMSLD
Chain of GRIP2_3, Q9C0E4 (Q9C0E4 238-339): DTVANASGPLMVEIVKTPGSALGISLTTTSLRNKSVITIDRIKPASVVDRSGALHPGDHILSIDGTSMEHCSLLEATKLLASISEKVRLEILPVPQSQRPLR
Chain of LAP2, Q96RT1 (Q96RT1 other isoform, or with tags, fused parts or gaps): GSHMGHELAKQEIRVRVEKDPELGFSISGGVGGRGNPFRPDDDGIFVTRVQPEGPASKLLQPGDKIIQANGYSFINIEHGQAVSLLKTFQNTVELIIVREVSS
Chain of PARD3_3, Q8TEW0 (Q8TEW0 582-685): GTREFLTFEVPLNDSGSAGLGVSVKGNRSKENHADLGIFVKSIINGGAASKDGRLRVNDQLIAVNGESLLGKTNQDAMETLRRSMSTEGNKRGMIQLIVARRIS
Chain of Inadl_3, Q8NI35 (Q8NI35 359-469): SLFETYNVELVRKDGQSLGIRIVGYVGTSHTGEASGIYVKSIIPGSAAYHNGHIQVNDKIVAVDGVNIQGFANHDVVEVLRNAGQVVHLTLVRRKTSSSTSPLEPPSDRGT
Chain of Inadl_10, Q8NI35 (Q8NI35 1673-1763): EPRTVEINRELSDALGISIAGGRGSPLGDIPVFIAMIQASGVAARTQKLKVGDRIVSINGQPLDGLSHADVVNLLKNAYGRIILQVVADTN
Chain of TJP2_1, Q9UDY2 (Q9UDY2 24-128): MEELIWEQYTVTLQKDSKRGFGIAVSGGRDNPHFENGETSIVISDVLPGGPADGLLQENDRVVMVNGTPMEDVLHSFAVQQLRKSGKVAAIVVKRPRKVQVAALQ

pKd (TX1BP3, O14907; [1]): 4.82 | pKd (Inadl_10, Q8NI35; [1]): below the threshold | pKd (Inadl_8, Q8NI35; [1]): below the threshold | pKd (LIN7B, Q9HAP6; [1]): 3.74 | pKd (ARHGEF11, O15085; [1]): below the threshold | pKd (HTRA1, Q92743; [1]): below the threshold | pKd (PDZD2_2, O15018; [1]): 4.36 | pKd (GRIP1_2, Q9Y3R0; [1]): below the threshold | pKd (LNX2_3, Q8N448; [1]): below the threshold | pKd (AHNAK1, Q09666; [1]): below the threshold | pKd (PDZRN3_1, Q9UPQ7; [1]): 4.43 | pKd (TJP2_1, Q9UDY2; [1]): below the threshold | pKd (PARD3_3, Q8TEW0; [1]): below the threshold | pKd (SCRIB_2, Q14160; [1]): 3.69 | pKd (LAP2, Q96RT1; [1]): below the threshold | pKd (SNTB1, Q13884; [1]): 4.03 | pKd (GRIP2_3, Q9C0E4; [1]): below the threshold | pKd (DFNB31_2, Q9P202; [1]): below the threshold | pKd (Inadl_5, Q8NI35; [1]): below the threshold | pKd (Inadl_4, Q8NI35; [1]): below the threshold | pKd (PTPN13_1, Q12923; [1]): below the threshold | pKd (Inadl_3, Q8NI35; [1]): below the threshold | pKd (SHANK1, Q9Y566; [1]): below the threshold | pKd (MAGI3_2, Q5TCQ9; [1]): 4.9 | pKd (GRASP, Q7Z6J2; [1]): below the threshold | pKd (PICK1, Q9NRD5; [1]): below the threshold
Binder: NISYRRESAI [KCNJ4, P48050]

pKd (TX1BP3, O14907; [2]): 4.74 | pKd (Inadl_10, Q8NI35; [2]): below the threshold | pKd (Inadl_8, Q8NI35; [2]): 4.68 | pKd (LIN7B, Q9HAP6; [2]): 4.15 | pKd (ARHGEF11, O15085; [2]): 4.3 | pKd (HTRA1, Q92743; [2]): 4.28 | pKd (PDZD2_2, O15018; [2]): 5.66 | pKd (GRIP1_2, Q9Y3R0; [2]): below the threshold | pKd (LNX2_3, Q8N448; [2]): 3.63 | pKd (AHNAK1, Q09666; [2]): below the threshold | pKd (PDZRN3_1, Q9UPQ7; [2]): 4.31 | pKd (TJP2_1, Q9UDY2; [2]): 4.36 | pKd (PARD3_3, Q8TEW0; [2]): below the threshold | pKd (SCRIB_2, Q14160; [2]): 4.61 | pKd (LAP2, Q96RT1; [2]): 4.41 | pKd (SNTB1, Q13884; [2]): 5.22 | pKd (GRIP2_3, Q9C0E4; [2]): below the threshold | pKd (DFNB31_2, Q9P202; [2]): 4.79 | pKd (Inadl_5, Q8NI35; [2]): 3.73 | pKd (Inadl_4, Q8NI35; [2]): below the threshold | pKd (PTPN13_1, Q12923; [2]): below the threshold | pKd (Inadl_3, Q8NI35; [2]): 3.75 | pKd (SHANK1, Q9Y566; [2]): below the threshold | pKd (MAGI3_2, Q5TCQ9; [2]): 5.14 | pKd (GRASP, Q7Z6J2; [2]): 3.57 | pKd (PICK1, Q9NRD5; [2]): 3.76
Binder: QDEKVKESYV [ABCA1, O95477]

pKd (TX1BP3, O14907; [1]): below the threshold | pKd (Inadl_10, Q8NI35; [1]): below the threshold | pKd (Inadl_8, Q8NI35; [1]): 3.69 | pKd (LIN7B, Q9HAP6; [1]): 3.62 | pKd (ARHGEF11, O15085; [1]): below the threshold | pKd (HTRA1, Q92743; [1]): 3.85 | pKd (PDZD2_2, O15018; [1]): 4.79 | pKd (GRIP1_2, Q9Y3R0; [1]): below the threshold | pKd (LNX2_3, Q8N448; [1]): below the threshold | pKd (AHNAK1, Q09666; [1]): below the threshold | pKd (PDZRN3_1, Q9UPQ7; [1]): below the threshold | pKd (TJP2_1, Q9UDY2; [1]): below the threshold | pKd (PARD3_3, Q8TEW0; [1]): below the threshold | pKd (SCRIB_2, Q14160; [1]): 3.49 | pKd (LAP2, Q96RT1; [1]): 4.09 | pKd (SNTB1, Q13884; [1]): below the threshold | pKd (GRIP2_3, Q9C0E4; [1]): below the threshold | pKd (DFNB31_2, Q9P202; [1]): below the threshold | pKd (Inadl_5, Q8NI35; [1]): below the threshold | pKd (Inadl_4, Q8NI35; [1]): below the threshold | pKd (PTPN13_1, Q12923; [1]): below the threshold | pKd (Inadl_3, Q8NI35; [1]): below the threshold | pKd (SHANK1, Q9Y566; [1]): below the threshold | pKd (MAGI3_2, Q5TCQ9; [1]): 3.99 | pKd (GRASP, Q7Z6J2; [1]): below the threshold | pKd (PICK1, Q9NRD5; [1]): below the threshold
Binder: QRPYRRGSEI [KCNJ18, B7U540]
